The text below walks through data of paper PMC3716694, “Crystal structure of signal regulatory protein gamma (SIRPγ) in complex with an antibody Fab fragment” (BMC Structural Biology, 2013).

By stoichiometry N is commonly meant the number of molecules, sites or subunits per partner or assembly. Broadly, the Kd is the concentration at which binding is half-saturated.

Experiment [1] addresses T1, extracellular region of human signal regulatory protein gamma (SIRPγ) (human, UniProt Q9P1W8-1, high-mannose N-glycans (CHO Lec3.2.8.1); in the crystal de-glycosylated with endoglycosidase F1, N-acetylglucosamine modelled at residue 240).
T1 construct: SIRPγ, human, residues 29-347 of NP_061026, three Ig-like domains d1-d3; Glycosylated in the AUC experiments, Endo F1-treated in the crystal; also called SIRPβ2
The experiment can be described thus: AUC; sedimentation velocity of SIRPγ: FabOX117 mixtures (2:1 and 1:2), total 1 mg/ml (13.7/6.3 μM), 40 000 rpm, 20 mM Tris-HCl pH 7.5, 200 mM NaCl, 20°C. The conditions noted are these: both partners purified.

Experiment [2] addresses T1, extracellular region of human signal …. The experiment can be described thus: AUC; sedimentation equilibrium of SIRPγ: FabOX117 mixtures at 2:1, 1:1 and 1:2, total 1 mg/ml, 15 000, 20 000, 28 000 and 36 000 rpm, fitted to A + B ↔ AB (SEDPHAT), 20 mM Tris-HCl pH 7.5, 200 mM NaCl, 20°C. The conditions noted are these: both partners purified.

T1 sequence (Q9P1W8 29-347): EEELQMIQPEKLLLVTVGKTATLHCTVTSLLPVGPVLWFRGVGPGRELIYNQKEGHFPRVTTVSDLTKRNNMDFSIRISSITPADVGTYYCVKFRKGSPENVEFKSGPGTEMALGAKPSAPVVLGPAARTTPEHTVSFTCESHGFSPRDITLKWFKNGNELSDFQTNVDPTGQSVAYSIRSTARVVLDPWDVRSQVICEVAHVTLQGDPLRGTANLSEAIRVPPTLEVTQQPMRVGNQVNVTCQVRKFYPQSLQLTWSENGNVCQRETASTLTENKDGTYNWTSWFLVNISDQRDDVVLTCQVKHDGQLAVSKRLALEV

B1: Fab fragment of the anti-SIRP monoclonal antibody OX117 (Fab, V domains shown)
VH: EVKLQQSGPELVKPGASVKISCKASGYSFTSYYIHWVKQRPGQGLEWIGWVFPGSGNTKYNEKFKGKATLTADTSSSTAYMQLSSLTSEDSAVYFCARGNYDRAWFAYWGQGTLVTVSA
VL: DIVITQSPKFMSTSVGDRVSITCKASQDVSTAVAWFQQKPGQSPKLLIYSASYRYTGVPDRFTGSGSGTDFTFTISSVQAEDLAVYYCQQHYSTPWTFGGGTKLEIK
notes: Fd region (Vh and CH1 domains) of OX117, 220 residues; light chain of OX117, 214 residues; Recombinant Fab; also called FabOX117; not shown: His6, C-terminal, kept
Take B1: the “stoichiometry N” value in experiment [1] turned out to be 1. For the same molecule, the Kd in experiment [2] turned out to be 1.2 µM.
